Literature values as cited in PMC5626786.

Target: Ark1p peptide (Saccharomyces cerevisiae) (UniProt P53974)
UniProt P53974, sequence (P53974 whole entry): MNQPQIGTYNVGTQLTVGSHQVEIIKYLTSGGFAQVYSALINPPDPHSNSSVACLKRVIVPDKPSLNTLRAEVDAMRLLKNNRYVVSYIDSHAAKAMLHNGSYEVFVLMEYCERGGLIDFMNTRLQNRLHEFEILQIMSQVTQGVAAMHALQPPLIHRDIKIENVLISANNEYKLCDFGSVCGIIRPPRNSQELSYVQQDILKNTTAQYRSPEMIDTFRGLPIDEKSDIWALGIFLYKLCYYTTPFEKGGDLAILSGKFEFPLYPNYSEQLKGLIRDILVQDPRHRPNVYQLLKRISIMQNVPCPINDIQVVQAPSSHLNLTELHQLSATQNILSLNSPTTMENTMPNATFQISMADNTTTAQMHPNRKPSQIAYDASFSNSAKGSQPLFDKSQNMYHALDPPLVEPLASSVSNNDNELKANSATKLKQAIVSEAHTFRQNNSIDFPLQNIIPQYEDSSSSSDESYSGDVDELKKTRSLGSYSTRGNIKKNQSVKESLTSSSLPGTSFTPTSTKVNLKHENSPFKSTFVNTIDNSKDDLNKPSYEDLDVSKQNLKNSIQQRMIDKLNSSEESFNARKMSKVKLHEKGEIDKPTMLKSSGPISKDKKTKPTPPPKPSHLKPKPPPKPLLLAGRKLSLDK

- Kd: 4.4 µM
Substance: Abp1p SH3 (from UniProt P15891)
